Laboratory results: the domain aggregation screens of Martell et al. (2025)

Assay: soluble fraction after stress (log2 fold change); higher = more stays soluble; pooled small domains, quantitative proteomics
Conditions: stress: 50 degC
In short: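 The stress applied to every library was 50°C. These custom libraries of small protein domains were pooled and measured at high throughput with quantitative proteomics as the read-out. Aggregation propensity is expressed as the base-two logarithm of the fold change in how much of each protein remains soluble. The higher the value, the more of that protein stays in solution.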

Sequence | soluble fraction (log2)
HMANMTAKQINMFGDKLSRDKDFQSYYIAKSGDSREQYAQDIKGKLLDPFYVNAWMPYLEKIGFVPS | 0.00797
HMSTMTEQEAFGLWERINDFIARTGNEPNRNSNDAHEVRMAEALNFIRIKVAEQRNSQSNSEAQNN | -0.0168
HMLDSPHDDLNRKIVQMLQNDGRLPYKDIAEVLSVSEGTVRNRVQRMRDAGMLNIVALIDPMAI | 0.158
HMKWYDSDKGFGFLSQEEGEDVYVRSSALPAGVEGLKAGQRVEFGIASGRRGPQALSL | -0.0714
HMENMTLGQRIQALRKQHGLSQEGLGERLGVSRQAISRWEMDGAVPEVDKLIAMARLFGVSLNQLLGVE | -0.193
HMKRSFGSVRQLRSGNYQARYTGPDTVRHTSPVTYTSKMDAEAWLVDERRKISSGTWTPPAR | 0.0133
HMKGQLVVFPNPASSNDMVRFNKNISFSIFDITGHLVDTKRNVNELSVGNLEAGTYILRTEQGDVLRMVI | -1.24
HMDNTSNVEKTLRFIRQRGKVSRKEVETLLGSSKFPAISALNELLAENKIVKTGSGPAVRYSVS | -0.0887
HMPDVAIMNVSVEPEKKVVRLQVKAISLEALLDFSTRLEAIPARVELQNHTPSKELSQKWAVNATLIVIY | 0.146
HMNTSSVTVHYQDEAGKSLADTVTLTGKVGETYSSEQKKITGYNFKEVRGNPKGQFTTEAQTVTYVYTQAA | 0.156
HMLFKGDTREENVILEFLSKNGTTSSDAIIKQTGLSASEFNQAITMLELKGLALNNGGEKWSL | -0.0779
HMFYWTDLIGLDVINTADERLGKVVGLIETGANAVLRVMGDDQVERLLPFGSAVVLTVEKEAGQIRVEW | -0.89
HMSYTWHDMYLLAQEYQKEHGNLIIPRNYKGKNGLNLGYWLYKEKLKYRQGKLAPEKIIALEHIGIVWT | -1.21
HMGIVTMPGQGSKMRFDFDATGDLPSSTSWRGMFAYANNTKRAYVSTGTTMGGYNGWRQLIAMDEYGNYQT | -0.0345
HMLENYEGFKQKILKLTGIDLSSYKERQMRRRIDSLIHRNNYDDYDEYFKALTQNSNLYDEFINYLTI | -0.539
HMVSKTEAMAVFIADKLQEGMVPANEILELYKGMQLSDRTIRNAKKQLGIVSIRKDGQWYWSL | -1.19
HMGNSRNDQDLQTQIIKILAEGPASSRTLIETLTIEDEAALLKTLKRLLMNKKISLTPSNLYKL | -0.487
HMDDEDLAFLQREFVSYQQAMDYYGLGYKPVVRLSHISGSVYKIGKKVLIRRNIFEEYLRNHV | -0.00496
HMIEGEQVRLLRLLERQEGGMLPLGDKSPASDILLLTGMSKKTFKMAVGALYKAQMITMTPTSIKLVK | -0.684
HMGKTTQEIEERSSTSTLTLTQTPKEIISVQGKKSDQSFFTNIQYTQNGKVIVPKQTGIYDTIKVVFTVSL | -1.2
HMFWVESDVDFVDKTSAHNAIKENERVIGMYISYRLNGTWTTEQYVGIDTSKDNWENPDNWNIL | -0.308
HMAIDPLLDKGYEQYDKGEFTEAVKSFNRAIEIDPKNAEAHFLRAMTYQGLALSKLAVADLEKAIV | 0.136
HMIPYSDLLKLLSNDAMPKFRNKDGWAKIHALETYLASRWSYQEYGFASFTVLLETVHNAEIRNDSVRLM | -0.343
HMTKGVWHTVKKGENLYRISLYYEVPQQEIKKANKIETENIVVGQKLFIPNTTKKSPIFALTP | -1.49
HMKPAFTPYVVKVTADVLNVRSGPGTNYGITTKVKKGEAYTIVEEKNGWGKLKSGAGWISLEYTVK | -0.109

Sequence | soluble fraction (log2)
HMNNIGSKIKSAKILNNLDDNQLSEITGIDKLQLRSIQDGQVNPTKMELEIISKALKLPTNYFTK | -0.0222
HMYMLYQQLADSLRDKIYEGTYTFGDKIPSERTLAATFGISHLTVRKALAILEEEGLLDRRQGNGTFVRV | -1.02
HMYMKGKVKWFDSKKGYGFITSENGKEIFVHFSGIAAKGFKSLNEGQTVEFEVANGAKGEQAVNVTV | -0.804
HMGVTDLFAVLGFPRSPWLDAEELKQRHHALMADEASANSSPTILNEARRTLQNPALRIRHFLALEFPDH | -0.397
HMQAPVDPIVLGKMGSSYGIRGWLRVFSSTEDAESIFDYQPWFIQKAGQWQQVQLESWKHHNQDMIIKLN | 0.0749
HMNEVETWSVQADGATGRIDKWLAEQNEWSRSQVQEWLKAGRVEVDGRVVKPNYKLSGTESIAVHIPEAV | -0.0928
HMNRITEFVVPEGTKKIRADKLLAESFPDHSRSDFHRAFDASLVRLEGQPISKNRKISQGDVLVFEMPEI | 0.281
HMQQEPNFYIVDGNTNQIVDRYYAPDSNVAHQYLGQWRQQHDPQETGNYRYGRLSSETEERYRNLAA | 0.236
HMELDFNSVYRQLNHEQKQAYQSIKSVLEQKISGSELDKKLKQAQQAFVAKFKENPNFEVPK | 0.31
HMVISAKRMQDRRDSILDAAREAFARAGFEGTSIADIARRAGVSDGLVYRYFASKRDLLNAVLTA | -0.83
HMGDVPESLVEKAGHSINAKIISAWGMTETGASTMTRPQDDPERAIYSDGVVLPLMDVRVVNDAGLA | 0.0119
HMTPNATWQDDAQNLLRDLIQHQPVLVQISAAKRLRDQAEQISRITGGETVTREHVEAAGHALGMGVT | 0.0847
HMEAELNSLVKTYENMKPKAAAQVFEELDMDVLLDVVERMKEKKLAPILAQVTPTRAKEITYELTQRR | 0.0638
HMSETAEFIIQVNGKVRAKLQLPTDISKEEIQKLALADENVQKYLNGEPRKIIFPPNTRLVSIV | -0.0471
HMSPPALAVQRDGSNVQISWPGAEEGWRLESSAEPSGAAWDLIAQNPTPVGGRWTVSLTEPTGRRFYRLVK | 0.0321
HMKKEDFLEILRDYLKKGFSEDEVMDILRDYEEYFVDGIIEGKSEIEIIQSLGSPKEIANELLAES | -0.202
HMTDLNDTQIKILELLSADASLSAAKMAGQLGIAGRNVEANIKKLKEKGILIRHGSPKSGYWEIVN | -0.0982
HMGESEWIVKWRGEKRDEERLQESELVRDDPEHRISVVRPRDDVDASAWLNRWRKSRYVQYIQPNHRVTIS | 0.0613
HMRPTAWEQVSRHIDQHGSIGNTEVRKAMETENVLAASKQIKKWLEQGLLIILNPTAGTRARRYSKPNM | -0.287
HMRPSGTAGILRYLSSGAIRGIGATTAQRLVSEFGEKTLDVMENEPERVAMLKGISKSKAEDFSLQLKQS | 0.0105
HMFMMVAGHLQIKNEKYYMVLELRTEQGERKTKWIGTGLAVKGNKRRAEAMLEETRTKYLSPV | -1.95
HMEKYTDDLEIAAEIARLETLMEGNGRVLIRPSGTEPLVRVMIEGNDIEQITKLAEDLAALLNKRF | -0.747
HMLAVPADFAEKLQSLRSQLASDDLDASDAFGRLQPFIKALYPAQLEALRKAVDDFDFVEATRLIDQLPQ | -0.232
HMGPVDFYQMFISELQHLAEKPVTVDALIESTQLHKSQLTEWLKRAVDDGVVKKLNRPARFQVKNK | -0.029
HMPGLITLEAAKTTALNHAKLTADQVTFVKQKLDRDDGRQVYEIEFYTSDYKEYDYEIDAVSGLILEVDYD | -0.671

Sequence | soluble fraction (log2)
HMQLDLNENEKIIFEILQNNKTMQLSNLKTQTELSNKGWDKAIKSLTKQGLAKVSKIDNELIVEFL | -0.249
HMNIIMLGEFIKEQRIKRKMTQEYLASELGISRPTYSQIELGTRELTIPEARKMAAIFNISLEDFLAEKE | -0.604
HMGPAVGAIRVEGNKRVEPETVRTYLTFNVGDPYDLAKVDESLKALFATGLFQDVRIRREGNTVVIVVVEN | -0.368
HMHHDQQQITAELARIARNGLPGLTADNAIISRLDALNLLINIHDDRGADATPLRGLLPAIADELLRLT | -0.273
HMEFGEVLAQLRQKRHISQAELGRAIFVSGGTISNYEKGVHFPDVEKLLLLADYFNVTTDYLLGRT | -2.04
HMGVAFAPVEKIKHTKTGNELYAVKLAGRVEAEVFGQLRQKAKEYDGYYSKFSRAFLFSTPEDAEAFRAE | 0.0208
HMKKHAPSLMRQIRRELKEGKSPESLLSKAKLISDSYYRSLSFYLLIPYLSPNSKQFQEAISLAGKDID | 0.255
HMEFFIIDHNGQQAGPFSFDQLVQKGISPETLVWKQGMADWNPAWKVEELKAVLEAVEANQSNQKAQ | 0.462
HMGAQRDFELQLIDVIRQNPGLTYKAYGEKLSVSQATVKRLVAKLKETGSIRREGSQRKGTWIITDD | -0.867
HMDRADIDAVDAEWVRATMERLGLRAKHIESHTGISKSTLSILLNGHRPLTRWHKIAFYYLFKHIEF | -2.68
HMDQESFGYFHVKYADVKQVADLVQKLNIPAVTWADERTRRLVALGSPATLQRISQVLNMVDL | -0.721
HMNKVDEEKNAELVSTIQNKFSDVSAATKKKVKAFMAEHDIPNFKNADEIPTANLEAIVAMLNED | 0.229
HMLRIIDYNRVVKDLNGLTPEQLLEKLAESFTVEDKGTEEYRPTELHNFSMYLGGHWYSLTAKPGTYDDND | -0.937
HMSKDKEKRTREHVLGILKKYDKVMTDKAFTVFKKMIKDESILEMELIKLINFIGERKEIRSKDVLAVVTE | 0.281
HMYIENIGDYLKSHDIKPSYQRIKVFEYLMQHKNHPTVDMIYKSLVDEIPTLSKTTVYNTLNLFIEKQI | -1.74
HMTANPSTEEIMARVEAIPLPIKRLPPGQIVQAQTVAATVLRSNPGLDLAKAWKLAYATVTGQE | -0.0416
HMVSDISTQYQKIINEALDKQPEVKLADIVTMIKEQTSNKVQNGIVENVAKQMNGIEIIKIGQAKGVRRTT | 0.116
HMDNREKLRQEFLENLKELQEQNDIPQQEIDRVILDYDGVAEFLEDEGALKRYGGQLVDMTAYRAGAIPS | -0.0987
HMSDFDPTLILDLIKGSGEALTKREIARALGIKGGDKRIELKSHLKSMEAEGVIVKQAGGAYSVP | -0.122
HMQLDDDQKEELILKLIDSLDTTKKGAPLTELAREAAKSNIGESELEEITTSLLDKGLVYEPTIGKMKR | 0.216
HMQLTVAVLIKNISKGQVISQGFLGFEARPERQIRGAYTNISEVLGRKAKSNIAVGTILKARHLDT | -2.94
HMDLPREKRIEIGLTYIYGIGLKTSQKILAATGIDPNTRVKDLDETTVSKLREYIDHNYRVEGELRS | -0.504
HMEFSYMDQGLERYRAFLETHGHGNVPESYHELKLVNFVAHIRKLYRMNLLSEERRRALDEAGFVF | -2.17
HMFEKVKLTLTIPSKYSGSTYSALRNRMNKFSKEEWLSNGDLKIEIEVTGGQKTDIYTLINKLTNGEAIIE | -0.141
HMVIVGGDVIVHYVDTEGKKISDDVVKSGNVGEDYSTDQKTILGYRFKEVQGNTSGKFTDKTQVVTYIYT | 0.404
